For 21 molecules, Kd, koff and kon results are on record in patent US20230203155A1 (ALMAC DISCOVERY, published 2023).

The labels stand for the following.
B1: ROR1 2A2 mAb (BioLegend) (antibody, V domains shown)
VH: QVQLQQSGAELVRPGASVTLSCKASGYTFSDYEMHWVIQTPVHGLEWIGAIDPETGGTAYNQKFKGKAILTADKSSSTAYMELRSLTSEDSAVYYCTGYYDYDSFTYWGQGTLVTVSA
VL: DIVMTQSQKIMSTTVGDRVSITCKASQNVDAAVAWYQQKPGQSPKLLIYSASNRYTGVPDRFTGSGSGTDFTLTISNMQSEDLADYFCQQYDIYPYTFGGGTKLEIK
B2: UC961 based mAb (antibody, human IgG1, kappa, V domains shown)
VH: QVQLQESGPGLVKPSQTLSLTCTVSGYAFTAYNIHWVRQAPGQGLEWMGSFDPYDGGSSYNQKFKDRLTISKDTSKNQVVLTMTNMDPVDTATYYCARGWYYFDYWGHGTLVTVSS
VL: DIVMTQTPLSLPVTPGEPASISCRASKSISKYLAWYQQKPGQAPRLLIYSGSTLQSGIPPRFSGSGTGTDFTLTINNIESEDAAYYFCQQHDESPYTFGEGTKVEIKR
notes: also called UC961-like; mAb based on UC-961
B3: BA11 (humanised HSA-binding VNAR) (VNAR)
VNAR: TRVDQSPSSLSASVGDRVTITCVLTDTSYPLYSTYWYRKNPGSSNKEQISISGRYSESVNKGTKSFTLTISSLQPEDSATYYCRAMSTNIWTGDGAGTKVEIK
notes: VNAR
B4: BA11 C-terminal cysteine derivative (VNAR)
VNAR: B3 VNAR
modifications: additional C-terminal cysteine (intein cleavage with cysteine)
notes: also called BA11-cys
B5: BA11-C term thiol-maleimide-peg-fluorescein (VNAR)
VNAR: B3 VNAR
modifications: C-terminal thiol conjugated to maleimide-peg-fluorescein
notes: also called BA11-S-mal-Fl
B6: BA11-oxime-fluorescein (VNAR)
VNAR: B3 VNAR
modifications: C-terminal oxime-linked benzaldehyde-peg-fluorescein
B7: BA11 C-terminal thiol derivative (VNAR)
VNAR: B3 VNAR
modifications: C-terminal thiol (intein cleavage with cysteamine)
notes: also called BA11-SH
B8: BA11-C terminal cysteine-maleimide-peg-fluorescein (VNAR)
VNAR: B3 VNAR
modifications: C-terminal cysteine conjugated to maleimide-peg-fluorescein
notes: also called BA11-cys-mal-Fl
B9: BA11-aminoxy (VNAR)
VNAR: B3 VNAR
modifications: C-terminal aminoxy (intein cleavage with dioxyamine)
B10: P3A1 V1 dimer (VNAR)
chain: TRVDQSPSSLSASVGDRVTITCVLTDTSYGLYSTSWFRKNPGTTDWERMSIGGRYVESVNKGAKSFTLTISSLQPEDFATYYCKAREARHPWLRQWYDGAGTKVEIKGGGGSGGGGSGGGGSGGGGSGGGGSTRVDQSPSSLSASVGDRVTITCVLTDTSYGLYSTSWFRKNPGTTDWERMSIGGRYVESVNKGAKSFTLTISSLQPEDFATYYCKAREARHPWLRQWYDGAGTKVEIKQASGAHHHHHHGAEFEQKLISEEDL
B11: P3A1 G2 dimer (VNAR)
chain: B10 chain with S35Y, F37Y, V56S, F78S, K84R, S167Y, F169Y, V188S, F210S, K216R
notes: humanised VNAR dimer
B12: B1 G2 (humanised/grafted B1) with His6myc tag (VNAR)
VNAR: TRVDQSPSSLSASVGDRVTITCVLTGANYGLASTYWYRKNPGSSNQERISISGRYSESVNKRTMSFTLTISSLQPEDSATYYCRAYPWGAGAPWLVQWYDGAGTKVEIKQ
notes: VNAR
B13: B1 G1 (humanised/grafted B1) with His6myc tag (VNAR)
VNAR: B12 VNAR with Q46K, R48Q, R62G, M64K
notes: VNAR
B14: B1 humanised V7 with His6myc tag (VNAR)
VNAR: B12 VNAR with T1A, R2S, L10A, V18L, L24V, S33A, R84K, V106L, I108V
notes: VNAR; also called B1V7
B15: B1 humanised V5 with His6myc tag (VNAR)
VNAR: B12 VNAR with T1A, R2S, L24V, S33A, R84K
notes: VNAR; also called B1V5
B16: D3 humanised EL V2 with His6myc tag (VNAR)
VNAR: ASVNQSPSSLSASVGDRVTITCVLTDTSYGLYSTSWFRKNPGTTDWERMSIGGRYVESVNKRAKSFTLTISSLQPEDFATYYCKAQSGMAISTGSGHGYNWYDGAGTKVEIKQ
notes: VNAR; also called D3 EL V2
B17: D3 humanised ADV2 with His6myc tag (VNAR)
VNAR: B16 VNAR with A1T, S2R, N4D, V56S, R62G, F78S
notes: VNAR; also called D3 AD V2
B18: D3 humanised EL V4 with His6myc tag (VNAR)
VNAR: B16 VNAR with F37Y, R38Q, K39Q, N40K
notes: VNAR; also called D3 EL V4
B19: P3A1 G1 dimer (VNAR)
chain: TRVDQSPSSLSASVGDRVTITCVLTDTSYGLYSTYWYRKNPGSSNKEQISISGRYSESVNKGTKSFTLTISSLQPEDSATYYCRAREARHPWLRQWYDGAGTKVEIKGGGGSGGGGSGGGGSGGGGSGGGGSTRVDQSPSSLSASVGDRVTITCVLTDTSYGLYSTYWYRKNPGSSNKEQISISGRYSESVNKGTKSFTLTISSLQPEDSATYYCRAREARHPWLRQWYDGAGTKVEIKQASGAHHHHHHGAEFEQKLISEEDL
notes: humanised VNAR dimer
B20: D3 ADV1 dimer (VNAR)
chain: ASVNQSPSSLSASVGDRVTITCVLTDTSYGLYSTSWFRKNPGTTDWERMSIGGRYSESVNKGAKSFTLTISSLQPEDSATYYCKAQSGMAISTGSGHGYNWYDGAGTKVEIKGGGGSGGGGSGGGGSGGGGSGGGGSASVNQSPSSLSASVGDRVTITCVLTDTSYGLYSTSWFRKNPGTTDWERMSIGGRYSESVNKGAKSFTLTISSLQPEDSATYYCKAQSGMAISTGSGHGYNWYDGAGTKVEIKQASGAHHHHHHGAEFEQKLISEEDL
notes: Listing names it 'D3V1 dimer'; also called D3V1 dimer
B21: D3 ADV2 dimer (VNAR)
chain: B20 chain with A1T, S2R, N4D, A138T, S139R, N141D
notes: Listing names it 'D3V2 dimer'; also called D3V2 dimer

Numbering of substitutions follows the chain as printed.

T5 sequence (A2V9Z4 25-608 limits assumed): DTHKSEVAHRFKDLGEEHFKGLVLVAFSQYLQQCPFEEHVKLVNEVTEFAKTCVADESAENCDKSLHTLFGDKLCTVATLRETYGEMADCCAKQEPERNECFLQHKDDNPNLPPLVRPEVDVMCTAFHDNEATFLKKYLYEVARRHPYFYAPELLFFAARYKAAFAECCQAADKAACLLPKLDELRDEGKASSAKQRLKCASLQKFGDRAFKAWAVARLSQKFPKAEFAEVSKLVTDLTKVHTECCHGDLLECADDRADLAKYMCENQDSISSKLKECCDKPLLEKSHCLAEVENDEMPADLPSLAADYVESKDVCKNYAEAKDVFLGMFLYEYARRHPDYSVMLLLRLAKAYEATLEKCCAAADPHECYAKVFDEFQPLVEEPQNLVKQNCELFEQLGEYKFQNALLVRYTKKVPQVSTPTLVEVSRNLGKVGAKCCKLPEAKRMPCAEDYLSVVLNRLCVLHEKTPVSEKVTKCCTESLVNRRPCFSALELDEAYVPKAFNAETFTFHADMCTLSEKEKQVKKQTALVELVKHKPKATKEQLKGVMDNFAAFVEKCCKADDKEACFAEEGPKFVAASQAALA
T4 sequence (P07724 25-608 limits assumed): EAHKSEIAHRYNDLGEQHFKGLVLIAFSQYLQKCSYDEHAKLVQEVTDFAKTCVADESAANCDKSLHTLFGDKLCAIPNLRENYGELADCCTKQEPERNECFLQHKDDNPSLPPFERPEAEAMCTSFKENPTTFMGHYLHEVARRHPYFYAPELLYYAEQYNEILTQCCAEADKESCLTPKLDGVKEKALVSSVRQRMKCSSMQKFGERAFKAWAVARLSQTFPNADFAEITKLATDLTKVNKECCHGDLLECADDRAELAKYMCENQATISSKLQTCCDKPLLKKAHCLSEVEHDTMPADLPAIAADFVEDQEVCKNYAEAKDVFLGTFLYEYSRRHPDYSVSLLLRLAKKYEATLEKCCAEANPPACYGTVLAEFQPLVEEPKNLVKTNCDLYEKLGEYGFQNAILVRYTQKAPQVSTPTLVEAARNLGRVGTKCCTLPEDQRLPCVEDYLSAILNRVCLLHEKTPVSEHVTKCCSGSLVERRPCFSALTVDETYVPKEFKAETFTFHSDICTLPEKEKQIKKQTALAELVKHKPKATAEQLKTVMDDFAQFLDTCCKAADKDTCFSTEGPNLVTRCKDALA
T3 sequence (P02770 25-608 limits assumed): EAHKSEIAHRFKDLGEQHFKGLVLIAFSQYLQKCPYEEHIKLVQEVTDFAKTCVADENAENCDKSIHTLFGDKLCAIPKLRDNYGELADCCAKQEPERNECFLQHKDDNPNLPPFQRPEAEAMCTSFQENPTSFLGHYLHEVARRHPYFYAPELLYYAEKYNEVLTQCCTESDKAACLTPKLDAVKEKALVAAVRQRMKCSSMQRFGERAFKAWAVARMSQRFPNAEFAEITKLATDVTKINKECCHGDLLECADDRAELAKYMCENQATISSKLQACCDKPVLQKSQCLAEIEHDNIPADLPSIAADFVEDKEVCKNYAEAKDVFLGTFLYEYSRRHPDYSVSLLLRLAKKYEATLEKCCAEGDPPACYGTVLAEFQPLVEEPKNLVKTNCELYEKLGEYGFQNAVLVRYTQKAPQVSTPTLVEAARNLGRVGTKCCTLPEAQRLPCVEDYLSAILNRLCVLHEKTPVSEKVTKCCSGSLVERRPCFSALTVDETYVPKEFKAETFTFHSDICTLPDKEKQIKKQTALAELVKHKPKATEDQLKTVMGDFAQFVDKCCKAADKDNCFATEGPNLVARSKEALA
T6 sequence (chain, as listed by the source limits assumed): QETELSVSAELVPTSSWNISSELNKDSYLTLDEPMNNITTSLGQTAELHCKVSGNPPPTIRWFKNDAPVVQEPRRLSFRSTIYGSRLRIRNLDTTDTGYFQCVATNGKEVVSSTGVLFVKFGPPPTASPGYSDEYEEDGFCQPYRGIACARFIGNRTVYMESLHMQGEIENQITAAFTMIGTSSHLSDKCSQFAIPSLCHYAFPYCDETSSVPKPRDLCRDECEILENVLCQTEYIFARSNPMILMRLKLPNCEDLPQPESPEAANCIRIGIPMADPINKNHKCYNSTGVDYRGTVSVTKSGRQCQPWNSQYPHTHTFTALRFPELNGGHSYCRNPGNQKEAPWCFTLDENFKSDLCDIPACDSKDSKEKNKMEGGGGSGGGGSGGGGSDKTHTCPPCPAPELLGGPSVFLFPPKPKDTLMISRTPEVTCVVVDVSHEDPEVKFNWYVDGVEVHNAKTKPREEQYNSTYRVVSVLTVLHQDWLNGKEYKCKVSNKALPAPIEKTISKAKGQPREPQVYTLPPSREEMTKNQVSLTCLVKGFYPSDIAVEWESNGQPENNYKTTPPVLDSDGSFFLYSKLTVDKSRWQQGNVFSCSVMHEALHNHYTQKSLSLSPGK

The first test deals with T1, recombinant human ROR1 (hROR1), construct not stated (human, UniProt Q01973 30-403, limits assumed). Nature of the test: SPR, hROR1 on chip. On the technique in general: In SPR one partner is held on a chip, and binding of the other changes the refractive index at the surface.
T1 sequence (Q01973 30-403 limits assumed): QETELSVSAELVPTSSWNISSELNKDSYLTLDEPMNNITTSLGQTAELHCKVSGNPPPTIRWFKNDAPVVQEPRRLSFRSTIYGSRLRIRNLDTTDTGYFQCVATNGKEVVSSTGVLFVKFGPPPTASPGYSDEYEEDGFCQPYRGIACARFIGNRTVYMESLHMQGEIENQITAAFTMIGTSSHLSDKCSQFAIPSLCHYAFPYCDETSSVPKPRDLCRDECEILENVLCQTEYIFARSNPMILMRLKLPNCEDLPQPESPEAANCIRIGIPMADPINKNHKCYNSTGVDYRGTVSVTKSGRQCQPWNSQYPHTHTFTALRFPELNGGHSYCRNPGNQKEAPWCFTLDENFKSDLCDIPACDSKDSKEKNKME
As a reminder, the Kd is a measure of binding affinity in units of concentration. Usually koff stands for the first-order rate constant of dissociation. One may read the kon as the rate constant with which the complex forms. Consider B1, for which the Kd came to 0.21 nM, the koff turned out to be 0.000211 s⁻¹ and the kon came to 979000 M⁻¹ s⁻¹.

A further test has as its target T1, recombinant human ROR1 (hROR1), …. Nature of the test: SPR, hROR1 on chip. The source holds these as a separate data set.
Method: (§1) Competition of binding studies were completed using SPR. […] FC2 was used as the reference channel. […] Binding kinetics were determined using QDat software.
B1: the equilibrium dissociation constant (Kd) amounted to 0.233 nM, the koff amounted to 0.000342 s⁻¹ and the kon worked out at 1.47e+06 M⁻¹ s⁻¹.
The corresponding values for B2 are 0.078 nM, 0.000451 s⁻¹ and 5.77e+06 M⁻¹ s⁻¹.

The next test has as its target T2, human serum albumin (human, UniProt P02768 25-609).
T2 construct: also called HSA
Nature of the test: SPR, albumin on chip, pH 5.5.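 Further: albumins amine-coupled onto carboxyl SPR chips, with each analyte also run over a hen egg lysozyme surface as negative control, Kd derived from binding kinetics.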
Method: (§2) Binding kinetics were determined using SPR. The serum albumins or negative control protein were immobilised to COOH₂ chips by amine coupling using optimised buffer conditions as follows: —Human serum albumin (HSA) and mouse serum albumin (MSA) were immobilised in sodium acetate pH5 buffer. Rat serum albumin (RSA) and cynomolgous serum albumin (CSA) in sodium acetate pH 4.5 buffer and the negative control hen egg lysozyme (HEL) protein was immobilised in sodium acetate pH 5.5 buffer.
(§3) For each analyte test experiment, binding to the chosen serum albumin protein was assayed alongside the negative control protein (HEL).
Take B3: the Kd came to 0.91 nM.
For B4, the Kd came to 1.96 nM.
Still for that read-out and setting: the figure for B5 is 1.91 nM.
Same read-out and setting: the figure for B6 is 1.3 nM; for B7 it is 2.23 nM.
Consider B8, for which the affinity, expressed as Kd, was 3.16 nM.

Another test addresses T3, rat serum albumin (rat, UniProt P02770 25-608).
T3 construct: also called RSA
Nature of the test: SPR, albumin on chip, pH 5.5.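 Further: albumins amine-coupled onto carboxyl SPR chips, with each analyte also run over a hen egg lysozyme surface as negative control, Kd derived from binding kinetics.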
Method: as §2, §3
In turn, B3 came in with a Kd of 4.39 nM.
The same measure, in the same setting: the figure for B4 is 3.21 nM; for B5 it is 7.92 nM; for B6 it is 5.93 nM.
B7 displayed a Kd of 12.1 nM.
The same measure, in the same setting: as for B8, the figure is 7.24 nM.

A further test concerns the target T4, mouse serum albumin (mouse, UniProt P07724 25-608).
T4 construct: also called MSA
Put plainly: SPR, albumin on chip, pH 5.5.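 Further: albumins amine-coupled onto carboxyl SPR chips, with each analyte also run over a hen egg lysozyme surface as negative control, Kd derived from binding kinetics.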
Method: as §2, §3
Turning to B3, the Kd stood at 4.8 nM.
The same measure, in the same setting: as for B4, the figure is 3.77 nM; as for B5, 10.6 nM; as for B6, 7.44 nM.
The same measure, in the same setting: as for B7, the figure is 11.1 nM.
In turn, B9 came in with a Kd of 21.2 nM.
On the same count and under the same terms, the figure for B8 is 13.6 nM.

A further test addresses T5, cynomolgous serum albumin (cynomolgous, UniProt A2V9Z4 25-608).
T5 construct: also called CSA; Cyano
Put plainly: SPR, albumin on chip, pH 5.5.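 Further: albumins amine-coupled onto carboxyl SPR chips, with each analyte also run over a hen egg lysozyme surface as negative control, Kd derived from binding kinetics.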
Method: as §2, §3
As for B3, the Kd was 1.11 nM.
On the same count and under the same terms, as for B5, the figure is 7.01 nM.
Same read-out and setting: the figure for B6 is 5.54 nM.
The same measure, in the same setting: the figure for B7 is 6.74 nM; for B8 it is 8.21 nM.

The target of a further test is T2, human serum albumin. Nature of the test: SPR, albumin on chip, pH 7.4.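 Further: Human, mouse, rat and cynomolgus serum albumins amine-coupled to carboxyl sensor chips, with a hen egg lysozyme surface measured in parallel as negative control.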
Method: as §2, §3
For B3, the affinity, expressed as Kd, was 0.636 nM.
The same measure, in the same setting: the figure for B4 is 0.756 nM; for B5 it is 1.42 nM.
The same measure, in the same setting: the figure for B6 is 0.677 nM.
On the same count and under the same terms, as for B7, the figure is 0.774 nM; as for B9, 1.12 nM; as for B8, 1.1 nM.

For another test, the target named is T3, rat serum albumin. Put plainly: SPR, albumin on chip, pH 7.4.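 Further: Human, mouse, rat and cynomolgus serum albumins amine-coupled to carboxyl sensor chips, with a hen egg lysozyme surface measured in parallel as negative control.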
Method: as §2, §3
In turn, B3 showed a Kd of 2.97 nM.
Take B4: the Kd was 3.37 nM.
Still for that read-out and setting: as for B5, the figure is 5.3 nM; as for B6, 5.72 nM; as for B7, 7.67 nM.
The same measure, in the same setting: the figure for B9 is 10.8 nM.
Turning to B8, binding was characterised by a dissociation constant (Kd) of 4.78 nM.

For a further test, the target named is T4, mouse serum albumin. Nature of the test: SPR, albumin on chip, pH 7.4.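 Further: Human, mouse, rat and cynomolgus serum albumins amine-coupled to carboxyl sensor chips, with a hen egg lysozyme surface measured in parallel as negative control.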
Method: as §2, §3
In turn, B3 displayed a Kd of 1.9 nM.
As for B5, the dissociation constant Kd is 5 nM.
Still for that read-out and setting: the figure for B6 is 4.24 nM.
In turn, B7 displayed a Kd of 4.76 nM.
Still for that read-out and setting: the figure for B9 is 8.77 nM; for B8 it is 5.06 nM.

The next test addresses T5, cynomolgous serum albumin. Nature of the test: SPR, albumin on chip, pH 7.4.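 Further: Human, mouse, rat and cynomolgus serum albumins amine-coupled to carboxyl sensor chips, with a hen egg lysozyme surface measured in parallel as negative control.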
Method: as §2, §3
Molecule B3 showed a Kd of 3.36 nM.
Still for that read-out and setting: the figure for B4 is 2.1 nM.
On the same count and under the same terms, as for B5, the figure is 2.3 nM; as for B6, 1.75 nM; as for B7, 3.41 nM.
The same measure, in the same setting: the figure for B9 is 7.97 nM; for B8 it is 3.68 nM.

A further test addresses T6, human ROR1-hFc fusion protein (extracellular domain) (human).
T6 construct: Whole entry 'human ROR1-Fc (CHO)'; also called hROR1; huROR1-Fc
Nature of the test: SPR, human ROR1 ECD-Fc on chip.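 Further: SPR binding kinetics of VNAR and VNAR-Fc molecules run at a range of concentrations over immobilised target, rate and affinity constants fitted with QDat software.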
Method: Binding kinetics were determined using a Pioneer Surface Plasmon Resonance (SPR) instrument (SensiQ/Pall ForteBio). […] VNARs and VNAR-Fc molecules were tested at various concentrations and the Ka (M⁻¹s⁻¹), Kd (s⁻¹) and KD (nM) values were determined using QDat software (SensiQ/Pall ForteBio).
Thermal stability assays used Applied Biosystems StepOne Real Time PCR system with the Protein Thermal Shift™ dye kit (Thermo). The assay mix was set up so that the protein was at a final concentration of 20 OA in 20 μL. 5 μL of Thermal Shift™ buffer was added alongside 2.5 uL 8× Thermal Shift™ Dye. Assays were run using the StepOne software and data analysed using Protein Thermal Shift™ software. All data are from first derivative analysis.
Take B10: the Kd is 0.18 nM, the koff is 0.000846 s⁻¹ and the kon was 4.78e+06 M⁻¹ s⁻¹.
In turn, B11 showed a Kd of 0.77 nM, a koff of 0.00119 s⁻¹ and a kon of 1.88e+06 M⁻¹ s⁻¹.
The corresponding values for B12 are 45.9 nM, 0.0079 s⁻¹ and 185000 M⁻¹ s⁻¹.
On to B13, for which the affinity, expressed as Kd, was 82.8 nM; the koff came to 0.0162 s⁻¹; the kon came out at 220000 M⁻¹ s⁻¹.
Molecule B14 returned a Kd of 0.77 nM, a koff of 5.54e-05 s⁻¹ and a kon of 77400 M⁻¹ s⁻¹.
The corresponding values for B15 are 0.74 nM, 3.85e-05 s⁻¹ and 52000 M⁻¹ s⁻¹.
The corresponding values for B16 are 18.9 nM, approximately 0.0163 s⁻¹ and 1.85e+06 M⁻¹ s⁻¹.
The corresponding values for B17 are 51.6 nM, 0.00236 s⁻¹ and 45800 M⁻¹ s⁻¹.
Molecule B18 showed a Kd of 58.5 nM, a koff of approximately 0.0545 s⁻¹ and a kon of 1.38e+06 M⁻¹ s⁻¹.
B19 gave a dissociation constant Kd of 0.43 nM, a koff of 0.00147 s⁻¹ and a kon of 4.3e+06 M⁻¹ s⁻¹.
The corresponding values for B20 are 8.92 nM, 0.00567 s⁻¹ and 636000 M⁻¹ s⁻¹.
The corresponding values for B21 are 26.2 nM, 0.016 s⁻¹ and 609000 M⁻¹ s⁻¹.

A further test addresses T1, recombinant human ROR1 (hROR1), …. Nature of the test: SPR, hROR1 on chip with competitor B1 pre-captured.
Method: as §1
As for B1, the Kd is 0.101 nM, the koff worked out at 8.47e-05 s⁻¹ and the kon is 835000 M⁻¹ s⁻¹.

Another test has the same target. Put plainly: SPR, hROR1 on chip with competitor P3A1 dimer pre-captured.
Method: as §1
In the case of B1, the dissociation constant Kd stood at 0.231 nM, the koff worked out at 0.000322 s⁻¹ and the association rate constant (kon) was found to be 1.39e+06 M⁻¹ s⁻¹.
For B2, the Kd is 0.081 nM, the off-rate constant (koff) is 0.000444 s⁻¹ and the kon came to 5.48e+06 M⁻¹ s⁻¹.
